The source of these data is publication PMC5362816.

In the assay the target is CaM-agarose (Sigma), P62157. Kind of assay: pull-down; CaM-agarose (Sigma) incubated with HEK293 lysate expressing a V5-His-tagged TRP channel; 20 mM Tris-HCl pH 7.4, 150 mM NaCl, 1% NP-40, 4 °C; 1 mM Ca2+ (Fig. 2A) or 2 mM Ca2+ (Fig. 2B); blot with anti-V5. To be noted: remark: other sources report otherwise.

B1: TRPV2 (V5-His tagged), Q9WUD2 1-761 (natural protein)
chain: MTSASSPPAFRLETSDGDEEGNAEVNKGKQEPPPMESPFQREDRNSSPQIKVNLNFIKRPPKNTSAPSQQEPDRFDRDRLFSVVSRGVPEELTGLLEYLRWNSKYLTDSAYTEGSTGKTCLMKAVLNLQDGVNACIMPLLQIDKDSGNPKLLVNAQCTDEFYQGHSALHIAIEKRSLQCVKLLVENGADVHLRACGRFFQKHQGTCFYFGELPLSLAACTKQWDVVTYLLENPHQPASLEATDSLGNTVLHALVMIADNSPENSALVIHMYDGLLQMGARLCPTVQLEEISNHQGLTPLKLAAKEGKIEIFRHILQREFSGPYQPLSRKFTEWCYGPVRVSLYDLSSVDSWEKNSVLEIIAFHCKSPNRHRMVVLEPLNKLLQEKWDRLVSRFFFNFACYLVYMFIFTVVAYHQPSLDQPAIPSSKATFGESMLLLGHILILLGGIYLLLGQLWYFWRRRLFIWISFMDSYFEILFLLQALLTVLSQVLRFMETEWYLPLLVLSLVLGWLNLLYYTRGFQHTGIYSVMIQKVILRDLLRFLLVYLVFLFGFAVALVSLSREARSPKAPEDNNSTVTEQPTVGQEEEPAPYRSILDASLELFKFTIGMGELAFQEQLRFRGVVLLLLLAYVLLTYVLLLNMLIALMSETVNHVADNSWSIWKLQKAISVLEMENGYWWCRRKKHREGRLLKVGTRGDGTPDERWCFRVEEVNWAAWEKTLPTLSEDPSGPGITGNKKNPTSKPGKNSASEEDHLPLQVLQSP
modifications: here or on the partner: coupled to agarose
For the molecule B1, the relative binding to CaM (normalized by total input) amounted to 0.8.

B2: TRPM8 (V5-His tagged), Q8R455 1-1104 (natural protein)
chain: MSFEGARLSMRSRRNGTLGSTRTLYSSVSRSTDVSYSESDLVNFIQANFKKRECVFFTRDSKAMESICKCGYAQSQHIEGTQINQNEKWNYKKHTKEFPTDAFGDIQFETLGKKGKYLRLSCDTDSETLYELLTQHWHLKTPNLVISVTGGAKNFALKPRMRKIFSRLIYIAQSKGAWILTGGTHYGLMKYIGEVVRDNTISRNSEENIVAIGIAAWGMVSNRDTLIRNCDDEGHFSAQYIMDDFMRDPLYILDNNHTHLLLVDNGCHGHPTVEAKLRNQLEKYISERTSQDSNYGGKIPIVCFAQGGGRETLKAINTSVKSKIPCVVVEGSGQIADVIASLVEVEDVLTSSMVKEKLVRFLPRTVSRLPEEEIESWIKWLKEILESPHLLTVIKMEEAGDEVVSSAISYALYKAFSTNEQDKDNWNGQLKLLLEWNQLDLASDEIFTNDRRWESADLQEVMFTALIKDRPKFVRLFLENGLNLQKFLTNEVLTELFSTHFSTLVYRNLQIAKNSYNDALLTFVWKLVANFRRSFWKEDRSSREDLDVELHDASLTTRHPLQALFIWAILQNKKELSKVIWEQTKGCTLAALGASKLLKTLAKVKNDINAAGESEELANEYETRAVELFTECYSSDEDLAEQLLVYSCEAWGGSNCLELAVEATDQHFIAQPGVQNFLSKQWYGEISRDTKNWKIILCLFIIPLVGCGLVSFRKKPIDKHKKLLWYYVAFFTSPFVVFSWNVVFYIAFLLLFAYVLLMDFHSVPHTPELILYALVFVLFCDEVRQWYMNGVNYFTDLWNVMDTLGLFYFIAGIVFRLHSSNKSSLYSGRVIFCLDYIIFTLRLIHIFTVSRNLGPKIIMLQRMLIDVFFFLFLFAVWMVAFGVARQGILRQNEQRWRWIFRSVIYEPYLAMFGQVPSDVDSTTYDFSHCTFSGNESKPLCVELDEYNLPRFPEWITIPLVCIYMLSTNILLVNLLVAMFGYTVGIVQENNDQVWKFQRYFLVQEYCNRLNIPFPFVVFAYFYMVVKKCFKCCCKEKNTESSACCFRNEDNETLAWEGVMKENYLVKINTKANDNAEEMRHRFRQLDTKLNDLKGLLKEIANKIK
modifications: here or on the partner: coupled to agarose
For B2, the relative binding to CaM (normalized by total input) came to 0.9.
